Data published in PMC12737151, “Systematic Development and Characterization of Enzyme-Free, Borax-Crosslinked Microneedles for Glucose-Responsive Insulin Delivery and In Vivo Glycemic Mitigation” (Pharmaceutics, 2025).

Columns and labels:
[1] = tested on: STZ-diabetic mice; assay: Baseline efficacy 0–12 h: plasma glucose and plasma insulin; assay type: in vivo, C57BL/6J mice; conditions: basal monitoring, mean ± SD, n = 8
Method: (§1) Male C57BL/6J mice, 56–70 days old (8–10 weeks) and weighing 23–28 g at allocation, were housed under standard conditions with ad libitum access to food and water. Type 1 diabetes was induced by intraperitoneal streptozotocin (55 mg kg^−1 daily for 5 days). Mice with fasting plasma glucose (FPG) > 300 mg·dL^−1 were considered diabetic and enrolled. […] Animals were randomized to groups with allocation concealment; outcome assessors were blinded to treatment. […] Animals were housed at 22 ± 2 °C, 45–65% RH under a 12 h light/12 h dark cycle with environmental enrichment (nesting material), standard chow and water ad libitum. For blood sampling and patch application, brief isoflurane anesthesia was used (Materials). Humane endpoints: >20% body-weight loss from baseline, persistent FPG > 600 mg·dL^−1 despite treatment, or any severe distress prompted euthanasia per IACUC policy.
Treatments and Dosing. […] The nominal dose was calculated based on this area ratio:[Nominal IU per mini-patch] = (Mean IU per full patch) × (mini-patch area/full patch active area).
Baseline Efficacy (0–12/24 h). Plasma glucose levels (PGLs) were monitored for 12–24 h using a glucometer. Plasma insulin was quantified by ELISA at selected timepoints. The area under the curve (AUC0–12/24) was calculated to assess overall glycemic control.

[2] = tested on: STZ-diabetic mice; parameters: species or system C57BL/6J mice; conditions: mouse, in vivo; SD
Method: as §1
Patches were applied to a shaved dorsal skin site and secured with a semi-occlusive film. […] The nominal dose was calculated based on this area ratio:[Nominal IU per mini-patch] = (Mean IU per full patch) × (mini-patch area/full patch active area).
An intravenous glucose-tolerance test (IVGTT) was performed 2–4 h post-application by administering an IV bolus of dextrose (0.7 g·kg^−1). PGL and plasma insulin were monitored for 0–60 min post-bolus.

[3] = tested on: STZ-diabetic mice; assay: Intraperitoneal glucose-tolerance test (IPGTT); assay type: in vivo, C57BL/6J mice; conditions: 30 min after 1.5 g·kg^−1 glucose i.p., 4 h post-treatment, mean ± SD, n = 8
Method: Male C57BL/6J mice, 56–70 days old (8–10 weeks) and weighing 23–28 g at allocation, were housed under standard conditions with ad libitum access to food and water. Type 1 diabetes was induced by intraperitoneal streptozotocin (55 mg kg^−1 daily for 5 days). Mice with fasting plasma glucose (FPG) > 300 mg·dL^−1 were considered diabetic and enrolled. […] Animals were randomized to groups with allocation concealment; outcome assessors were blinded to treatment. […] For blood sampling and patch application, brief isoflurane anesthesia was used (Materials).
Patches were applied to a shaved dorsal skin site and secured with a semi-occlusive film. The nominal dose for mouse studies (0.05–0.20 IU) was delivered using “mini-patches” (Ø 3–5 mm) punched from larger, fully characterized patches (Ø 15 mm). The nominal dose was calculated based on this area ratio:[Nominal IU per mini-patch] = (Mean IU per full patch) × (mini-patch area/full patch active area).
IPGTT. An intraperitoneal glucose-tolerance test (IPGTT) was performed 4 h post-application by administering an IP bolus of glucose (1.5 g·kg^−1). PGL and plasma insulin were monitored for 0–120 min, and the AUC0–120 was calculated.

[4] = parameters: species or system C57BL/6J mice; conditions: mouse, in vivo; SD
Method: Pharmacokinetics. Serial blood samples were collected following sI-MN application or SC insulin dosing. Plasma insulin concentrations were quantified by ELISA (4-PL; appropriate plasma dilution; internal QCs and spike-recovery within 80–120%). Noncompartmental analysis (NCA) yielded Cmax, tmax, and AUC over the reported interval, and terminal half-life (t1/2). […] AUCs were calculated by the linear-up/linear-down trapezoidal rule.
patches (related to Section 2.2.3).
Mechanical Robustness — Single-Needle Fracture
compression at constant speed. Fracture point was identified from force–
displacement traces. Per-array mean ± SD and overall CV were computed.
ICC(1,1) (related to Section 2.2.4).
ELISA Validation — Patch Extract Matrices
ELISA sample diluent to fall within the validated range. For in-vitro release,
corner wells avoided to minimize edge effects. Carryover was checked by
placing an LLOQ well immediately after the ULOQ well. Matrix effect and
120% recovery and CV ≤15% (≤20% at LLOQ). Content (IU per patch) was
human insulin (≈28.8 IU·mg⁻¹). All ELISA-derived masses were converted
accordingly before IU normalizatio. Uniformity was summarized as mean ±
ELISA Validation — Mouse Plasma (PK)
inverted, and kept on wet ice.
specified visual criterion) were excluded. Samples were diluted 1:5–1:20 in kit
Selectivity against endogenous
mouse insulin was ensured per manufacturer documentation (cross-reactivity
<0.1%) and confirmed by blank plasma < LLOQ. Stability was verified for
14 days (≥90%). PK outputs per animal included observed Cmax, Tmax, AUC₀–
regression), and t½ = ln2/λz.
ICP–MS Validation — Boron Leaching
Ventures (Christiansburg, VA, USA). External calibration used 0–100 µg·L⁻¹
standards (matrix-matched), with R² ≥ 0.99 required. A rinse of 2% HNO₃ for
daily for five consecutive days.
dose and prior to glycemic assessments as applicable. Fasting plasma glucose
were excluded per pre-specified rules. All animal procedures complied with
and conformed to ARRIVE guidelines.

[5] = mouse, in vivo; SD
Method: Terminal blood (or blood under anesthesia where permitted) was collected into
serum tubes, allowed to clot for 20–30 min at room temperature, and
centrifuged at 2,000 g for 10 min. Serum was analyzed the same day on an
automated clinical chemistry analyzer available in our facility (reagent kits
from Thermo Fisher Scientific, Waltham, MA, USA, or Roche Diagnostics,
Indianapolis, IN, USA, as applicable), or stored at 4 °C for <6 h before testing.
Laboratory reference intervals for C57BL/6J were considered during
interpretation: AST 35–80 U·L⁻¹, ALT 25–60 U·L⁻¹, urea 5–9 mmol·L⁻¹, and
creatinine 25–60 µmol·L⁻¹ (ranges may vary by laboratory). Hemolyzed
samples were excluded per pre-specified criteria. Statistical analyses followed
the main text (normality by Shapiro–Wilk, variance homogeneity by Levene,
one-way ANOVA with Tukey post hoc; α = 0.05).

Substance: recombinant human insulin [SC insulin]
- Plasma glucose (PGL) ([1]; 0 h, dose-matched SC vs patch (nominal 0.05–0.20 IU)): 344 ± 16 mg/dL
- Plasma glucose (PGL) ([1]; 12 h, dose-matched): 220 ± 30 mg/dL
- IVGTT plasma insulin [2]: 5.4 ± 0.4 ng/mL
- IPGTT peak glycemia (maximal group mean at 30 min) [3]: 272 ± 17 mg/dL
- AUC0–12h [4]: 192 ± 11 ng·h/mL
- Tmax [4]: 1.0 ± 0.1 h
- t½ (terminal half-life) [4]: 2.64 ± 0.12 h
- AST [5]: 48.2 ± 6.7 U·L⁻¹
- Creatinine [5]: 39.4 ± 2.5 µmol/L
